How the values were obtained:
[1] = test system: type 1 diabetes mellitus (T1DM); experiment: ISLE-1 26-week Phase 2b randomized double-blind trial: A1c; format: in vivo, human; conditions: ITT, 26 weeks
Protocol: ISLE-1 was a 26-week, Phase 2b, multicenter, randomized, double-blind, non-inferiority trial.
(§1) ISLE-1 was a 26-week, Phase 2b, multicenter, randomized, double-blind, trial in T1DM treated with multiple daily injections (MDI) of insulin.
Main exclusion criteria were total insulin dose ≥1.5 IU/kg/day or NPH insulin as basal.
Prandial dosing of HDV-lispro or control lispro was 15 minutes prior to the meal, and basal insulins were administered either as a single daily dose or a divided twice per day dosing, every 12 hours.
(§2) Informed of ˜10% dilution, participants continued their current insulin parameters. Hypoglycemia was recorded on Case Report Forms (CRFs) based on subject diaries and SMBG records, subjectively investigator-judged as “mild,” “moderate,” “severe,” or “life threatening.” Blinded continuous glucose monitoring (CGM) (Dexcom G4) was used for 5-7 days to assess glucose at baseline, weeks 13 and 26. A1c, lipids, and liver enzymes were measured approximately monthly. Liver fat content MRIs were performed in a subset.
The intent to treat (ITT) population included all randomized subjects receiving at least one dose of study treatment. Safety analyses included all randomized subjects. […] Mean A1c change was analyzed using ANCOVA within intent-to-treat (ITT) cohort at each visit. […]

[2] = test system: type 1 diabetes mellitus (T1DM); experiment: ISLE-1: hypoglycemia (CRF-reported and blinded CGM)
Protocol: as §1, §2
The intent to treat (ITT) population included all randomized subjects receiving at least one dose of study treatment. Safety analyses included all randomized subjects. […] Mean A1c change was analyzed using ANCOVA within intent-to-treat (ITT) cohort at each visit. […] Poisson regression models adjusting for site as random effect compared “severe” hypoglycemia incidence rates within A1c groups, testing for baseline A1c by treatment group interaction. Event number/subject was truncated at 15, accounting for extreme outliers.

[3] = test system: type 1 diabetes mellitus (T1DM); experiment: ISLE-1: lipids, liver enzymes, liver fat MRI, adverse events; format: in vivo, human; conditions: over study
Protocol: as §1, §2
The intent to treat (ITT) population included all randomized subjects receiving at least one dose of study treatment. Safety analyses included all randomized subjects. […] Mean A1c change was analyzed using ANCOVA within intent-to-treat (ITT) cohort at each visit. […] Direct likelihood models were used for treatment arm A1c comparisons, % time <54 mg/dL, bolus insulin, and basal insulin within the two A1c subgroups. Poisson regression models adjusting for site as random effect compared “severe” hypoglycemia incidence rates within A1c groups, testing for baseline A1c by treatment group interaction. Event number/subject was truncated at 15, accounting for extreme outliers.

[4] = test system: type 1 diabetes mellitus (T1DM); experiment: Continuous glucose monitoring results, Good to Great Hypoglycemia study (Table 1); format: in vivo, human
Protocol: A1c, lipids, and liver enzymes were measured approximately monthly. Liver fat content MRIs were performed in a subset.
Safety analyses included all randomized subjects.
Table 1 summarizes continuous glucose monitoring results in the Good to Great Hypoglycemia study, in terms of increased HDV-related hypoglycemia events.

[5] = test system: type 1 diabetes (T1D); experiment: Example 3, 6-month open label study: insulin dosing, A1C, mean daily glucose, weight; format: in vivo, human; conditions: 61 enrollees, mean baseline A1C 7.3
Description: Subcutaneous (SC) insulin is non-physiologic, since pancreatic insulin goes first to the liver. The present study was designed to determine whether delivery of Hepatic Directed Vesicles (HDV) admixed with lispro/HUMALOG® (HDV-L) decreases hypoglycemia in well controlled patients on multiple daily injections (MDI) with type 1 diabetes (T1D) using unblinded Dexcom G6 continuous glucose monitoring (CGM).
This study was a 6-month (mo) open label study of prandial insulin (lispro, 3 mo, then HDV-L, 3 mo) with basal insulin degludec (TRESIBA®) and unblinded continuous glucose monitoring (CGM) in T1D with baseline A1C 6.5-8.5%. Insulin dosing, hypoglycemia, and daily glucose control were among the monitored parameters.
In this study the target fasting blood glucose was 80-100 mg/dL. At 3 mo subjects were randomized to −10% or −40% basal dose to encourage titration with HDV-L. Physicians titrated basal insulin weekly. A hypoglycemic event was defined as ≥15 min of CGM≤54 mg/dL.

## insulin lispro
[1]
  Mean change in A1c baseline to Week 26: −0.16%
[2]; baseline A1c<8.5%
  CRF-reported incidence of "severe" hypoglycemia: 21 events/100 person-years
[2]; baseline A1c<8.5%, CGM
  time <54 mg/dL during Week 26 (median): 0.6%
[2]; baseline A1c≥8.5%
  CRF-reported incidence rate of "severe" hypoglycemia: 97 events/100 person-years
[2]; baseline A1c≥8.5%, CGM
  percentage time <54 mg/dL during Week 26 (median): 2.6%
[3]
  change in total cholesterol: 7.3 mg/dL
[4]; Baseline
  % Time <54 mg/dL, median: 2.1%
  % Time <70 mg/dL, median: 5.8%
  Area above curve <54 mg/dL, median: 0.1
  Area above curve <70 mg/dL, median: 0.9
[4]; Endpoint
  % Time <54 mg/dL, median: 1.7%
  % Time <70 mg/dL, median: 5.6%
  Area above curve <54 mg/dL, median: 0.1
  Area above curve <70 mg/dL, median: 0.7
[5]
  A1C after 3 mo optimization: 6.9%

From patent US10918700B2, “Lipid-based nanoparticles and use of same in optimized insulin dosing regimens” (SDG, Inc., priority 2019, dated 2021)
